Substrate in series [1]: C[C@H](NC(=O)CCC(=O)O)C(=O)N[C@@H](C)C(=O)N1CCC[C@H]1C(=O)N[C@@H](Cc1ccccc1)C(=O)Nc1ccc([N+](=O)[O-])cc1
The series can be described thus: Rate parameters of Tk-SP with Suc-AAPF-pNA (Michaelis-Menten). It counts as biochemical, Thermococcus kodakaraensis KOD1. The conditions noted are these: substrate 0.01 to 2 mM. The protocol:
(§1) For examination of the pH dependence and the buffer dependence of the Tk-SP, enzyme reactions were performed using acetate buffers (pH 4.5, 5.0, 5.2, 5.4 and 5.6), MES buffers (pH 5.5, 6.0, 6.5 and 7.0), HEPES buffers (pH 7.0 and 7.5), Tris-HCl buffers (pH 7.0, 7.5, 8.0, 8.5 and 9.0), glycine-NaOH buffers (pH 8.5, 9.0, 9.5 and 10.0) and CAPS-NaOH buffers (pH 9.0, 9.5, 10.0, 10.5, 11.0 and 11.5) in the following procedure. 100 μl of a reaction mixture containing a 50 mM buffer and 2 mM Suc-AAPF-pNA (synthetic substrate) was incubated at 20° C. for 5 minutes. To this, 0.1 μg of the Tk-SP was added and the reaction mixture was further incubated at 20° C. for 10 minutes. The reaction was stopped by addition of 10 μl of acetic acid, and then the amount of p-nitroaniline produced from the synthetic substrate Suc-AAPF-pNA was determined by use of the absorption coefficient of 8900 M^−1 cm^−1 from the absorbance at 410 nm in an ultraviolet spectrophotometer (Beckman model DU640). The amount of the enzyme which catalyzes the production of 1 μmol of p-nitroaniline per minute was defined as “one unit.” The enzyme activity per milligram of the protein was defined as specific activity.
(§2) By use of, as a substrate, Suc-AAPF-pNA at various concentrations ranging from 0.01 to 2 mM, the specific activity of the Tk-SP was measured at 20 and 80° C. The measurement procedure was the same as that of Example 2. The obtained values were applied to the Michaelis-Menten equation for calculation of the rate parameters. For comparison, the specific activity of a known thermostable protease, Tk-subtilisin (see nonpatent literature 1) was similarly measured and then the rate parameters thereof were calculated.

Substrate in series [2]: C[C@H](NC(=O)CCC(=O)O)C(=O)N[C@@H](C)C(=O)N1CCC[C@H]1C(=O)N[C@@H](Cc1ccccc1)C(=O)Nc1ccc([N+](=O)[O-])cc1
In words: Rate parameters of Tk-subtilisin with Suc-AAPF-pNA (Michaelis-Menten), comparison. Type of series: biochemical, Thermococcus kodakaraensis KOD1. The conditions noted are these: substrate 0.01 to 2 mM. The protocol: as §1, §2

Two proteins from patent US8535928B2, “Protease and use thereof” (Osaka University, priority 2008, dated 2013) can be followed below.

One may read the Km as the substrate concentration at which the rate is half of its maximum.

B1: Thermococcus kodakaraensis KOD1 protease Tk-SP (mature subtilisin-like serine protease, SEQ ID NO: 1 or SEQ ID NO: 3) (Thermococcus kodakarensis KOD1) (protein)
chain: VETEGLDESAAQVMATNMWNLGYDGSGITIGIIDTGIDASHPDLQGKVIGWVDFVNGKTTPYDDNGHGTHVASIAAGTGAASNGKYKGMAPGAKLVGIKVLNGQGSGSISDIINGVDWAVQNKDKYGIKVINLSLGSSQSSDGTDSLSQAVNNAWDAGLVVVVAAGNSGPNKYTVGSPAAASKVITVGAVDKYDVITDFSSRGPTADNRLKPEVVAPGNWIIAARASGTSMGQPINDYYTAAPGTSMATPHVAGIAALLLQAHPSWTPDKVKTALIETADIVKPDEIADIAYGAGRVNAYKAAYYDNYAKLTFTGYVSNKGSQSHQFTISGAGFVTATLYWDNSGSDLDLYLYDPNGNQVDYSYTAYYGFEKVGYYNPTAGTWTIKVVSYSGSANYQVDVVSDGSLGQPSGGGSEPSPSPSPEPTV
notes: C-terminus at 562 or 563
As to B1, in series [1] (other: 20° C., 20.0 °C), the Km came to 117 µM, the Vmax is listed as 2.312 U/mg and the kcat was determined as 1.704 S^−1. Besides, in series [1] (other: 80° C., 80.0 °C), the Km was found to be 416 µM, the Vmax is reported as 34.84 U/mg and the kcat is listed as 25.668 S^−1.

B2: Thermococcus kodakaraensis KOD1 Tk-subtilisin (Tk-sub) (Thermococcus kodakarensis KOD1) (protein)
chain: GKPSWLGGGSTQPAQTIPWGIERVKAPSVWSITDGSVSVIQVAVLDTGVDYDHPDLAANIAWCVSTLRGKVSTKLRDCADQNGHGTHVIGTIAALNNDIGVVGVAPGVQIYSVRVLDARGSGSYSDIAIGIEQAILGPDGVADKDGDGIIAGDPDDDAAEVISMSLGGPADDSYLYDMIIQAYNAGIVIVAASGNEGAPSPSYPAAYPEVIAVGAIDSNDNIASFSNRQPEVSAPGVDILSTYPDDSYETLMGTSMATPHVSGVVALIQAAYYQKYGKILPVGTFDDISKNTVRGILHITADDLGPTGWDADYGYGVVRAALAVQAALG
On to B2, for which, in series [2] (other: 20° C., 20.0 °C), the Km is 4000 µM, the Vmax turned out to be 38.00 U/mg and the kcat worked out at 26.00 S^−1. Further, in series [2] (other: 80° C., 80.0 °C), the Km turned out to be 8000 µM, the Vmax worked out at 420.00 U/mg and the kcat turned out to be 290.00 S^−1.
